From patent US20100004429A1 (Kyowa Kirin, published 2010)

T1: human thrombopoietin receptor (human c-Mpl) (human, UniProt P40238 26-635)
T1 sequence (looked up): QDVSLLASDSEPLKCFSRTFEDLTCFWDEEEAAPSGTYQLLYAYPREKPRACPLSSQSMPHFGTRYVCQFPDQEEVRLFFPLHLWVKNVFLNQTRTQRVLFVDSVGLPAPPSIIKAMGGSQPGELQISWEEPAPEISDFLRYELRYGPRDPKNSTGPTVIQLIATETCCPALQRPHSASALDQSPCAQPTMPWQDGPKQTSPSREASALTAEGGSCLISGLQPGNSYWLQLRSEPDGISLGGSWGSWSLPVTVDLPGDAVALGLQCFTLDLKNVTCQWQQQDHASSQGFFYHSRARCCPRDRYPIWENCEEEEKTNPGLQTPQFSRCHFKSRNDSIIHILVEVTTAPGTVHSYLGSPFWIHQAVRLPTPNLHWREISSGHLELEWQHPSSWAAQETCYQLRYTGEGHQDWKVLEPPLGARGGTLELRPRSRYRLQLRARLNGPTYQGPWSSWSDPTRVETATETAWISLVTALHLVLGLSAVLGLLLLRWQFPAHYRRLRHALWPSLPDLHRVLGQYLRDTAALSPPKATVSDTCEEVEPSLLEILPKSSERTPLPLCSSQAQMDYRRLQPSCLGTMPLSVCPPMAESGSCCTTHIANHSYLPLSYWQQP


Columns and labels:
[1] = molecular target: T1, human thrombopoietin receptor (human …); assay: cell-based or functional assay
[2] = molecular target: T1, human thrombopoietin receptor (human …); assay: flow cytometry on FM3A-hMpl cells
Experimental: The binding activity of the anti-human c-Mpl antibodies was assayed by flow cytometry using the hybridoma culture supernatants or purified antibodies in the following manner. The FM3A-hMpl cells or human Mpl expressing FDCP2 cells (FDCP-hMpl) (FEBS, Lett., Oct. 21, 1996, 395 (2-3): 228-34) were used.
Cells (4×10⁵ cells) were suspended in 50 μl of FACS staining medium (2% FBS, 0.1% NaN₃, 1 mM EDTA in PBS) per reaction, 50 μl of the hybridoma culture supernatant or purified human antibody solution (final concentration: 0.1-1 μg/ml) was added, and the reaction was carried out on ice for 30 minutes. After the washing with FACS staining medium, a secondary antibody, the R-phycoerythrin (RPE) labeled goat anti-human Igγ F(ab′) antibody (Cat#2043-09, Southern Biotechnology), was added, and the reaction was carried out again on ice under the light-shielded conditions for 30 minutes, followed by washing again. The cells were suspended in a propidium iodide (PI)-containing FACS staining medium in order to analying binding activities of the antibodies. The analysis was made using the FACS Calibur (Becton Dickinson).
The concentrations of antibodies were prepared at 1, 0.1, and 0.01 μg/ml, and flow cytometry was carried out using FM3A-hMpl cells. The experiment was carried out in accordance with the method described in Example 4. […]

[3] = molecular target: T1, human thrombopoietin receptor (human …); assay: cell-based or functional assay; remark: listed apart in the source

| UT7/TPO (Max) [1] [%] | Binder | other results |
| --- | --- | --- |
| > 90 | anti-human c-Mpl agonist antibody 7-10 (IgG1) (antibody, V domains shown) VH: EVQLVESGGGLVQPGRSLRLSCAASGFTFDDYAMHWVRQAPGKGLEWVSGISWNSGSIGYADSVKGRFTISRDNAKNSLYLQMNSLRAEDTALYYCAKNLWFGEFRYWYFDLWGRGTLVTVSS VL: AIQLTQSPSSLSASVGDRVTITCRASQGISSALAWYQQKPGKAPKLLIYDASSLESGVPSRFSGSGSGTDFTLTISSLQPEDFATYYCQQFNSYPLTFGGGTKVEIK | – |
| > 50 | anti-human c-Mpl agonist antibody 6-5-2 (IgG1) (antibody, V domains shown) VH: EVQLVECGGGLVQPGRSLRLSCAASGFTFDDYAMHWVRQAPGKGLEWVSGISWNSGSIGYADSVKGRFTISRDNAKNSLYLQMNSLRAEDTALYYCAKPIWFGEWGNYYGMDVWGQGTTVTVSS VL: not shown | – |

More lines, now with the values behind:

| Binder | UT7/TPO (Max) [1] [%] | other results |
| --- | --- | --- |
| anti-human c-Mpl agonist antibody 4-49 (IgG1) (antibody, V domains shown) VH: EEQLVESGGGLVQPGRSLRLSCTASGFTFDDYAMYWVRQVPGKGLEWVSGISWNSGSIGYADSVKGRFTVSRDNAKNSLYLQMNSLRAEDTALYYCAKALWFGEFPHYYGMDVWGQGTTVTVSS VL: AIQLTQSPSSLSASVGDRVTITCRASQGISSTLAWYQQKPGKAPKLLIYDASSLESGVPSRFSGSGSGTDFTLTISSLQPEDFATYYCQQFNSYPYTFGQGTKLEIKR | > 80 | – |
| anti-human c-Mpl agonist antibody 6-4-50 (IgG1) (antibody, V domains shown) VH: EVQLVESGGGLVQPGRSLRLSCATSGFTFDNYAMYWVRQAPGKGLEWVSGISWNSGDIGYADSVKGRFTISRDNAKNSLYLQMNSLRAEDTALYYCARDAGFGEFHYGLDVWGQGTTVTVSS VL: AIQLTQSPSSLSASVGDRVTITCRASQGISSALAWYQQKPGKVPKLLIYDASSLESGVPSRFSGSGSGTDFTLTISSLQPEDFATYYCQQFNSYPWTFGQGTKVEIKR | > 80 | – |
| 7-10G4344uhm light chain mutant 7-10VL_A43V (antibody, V domains shown, Mutant light chain combined with the heavy chain of 7-10G4344uhm; human kappa constant region; also called 6-4-50VL substitution product 2) VH: EVQLVESGGGLVQPGRSLRLSCAASGFTFDDYAMHWVRQAPGKGLEWVSGISWNSGSIGYADSVKGRFTISRDNAKNSLYLQMNSLRAEDTALYYCAKNLWFGEFRYWYFDLWGRGTLVTVSS VL: AIQLTQSPSSLSASVGDRVTITCRASQGISSALAWYQQKPGKVPKLLIYDASSLESGVPSRFSGSGSGTDFTLTISSLQPEDFATYYCQQFNSYPLTFGGGTKVEIK | – | binding result [2]: binds |
| 7-10G4344uhm light chain mutant 7-10VL_Y94F (antibody, V domains shown, Human kappa constant region; also called CDR substitution product) VH: EVQLVESGGGLVQPGRSLRLSCAASGFTFDDYAMHWVRQAPGKGLEWVSGISWNSGSIGYADSVKGRFTISRDNAKNSLYLQMNSLRAEDTALYYCAKNLWFGEFRYWYFDLWGRGTLVTVSS VL: AIQLTQSPSSLSASVGDRVTITCRASQGISSALAWYQQKPGKAPKLLIYDASSLESGVPSRFSGSGSGTDFTLTISSLQPEDFATYYCQQFNSFPLTFGGGTKVEIK | – | binding activity relative to the original 7-10G4344uhm [2]: ~0.1 fold of the original level; agonistic activity relative to the original 7-10G4344uhm [3]: ~0.1 fold of the original level |
